Test results: PMC12914960, “Repurposing a detrimental antibody epitope as targeted therapeutics for sepsis and rheumatoid arthritis” (Military Medical Research, 2026)
Where no end group is shown, it is not given here. [ ]: non-standard residue; d: D form. Nle = CCCC[C@H](N)C(=O)O

How the values were obtained:
[1] = tested on: CLP-induced sepsis in BALB/c mice; test: Septic survival after cecal ligation and puncture (CLP); type: in vivo, mouse; conditions: P2 5.0 mg/kg twice at 2 h and 24 h post-CLP, i.p.
Method: Experimental sepsis was induced in BALB/c mice via CLP as previously described. […] The animals were randomly assigned to the control vehicle (n = 10 or n = 20) or experimental groups (n = 10 or n = 20). P2 (5.0 mg/kg), P2-1 (0.1 mg/kg or 1.0 mg/kg), or tetranectin N-terminal deletion mutant (ΔTN) (1.0 mg/kg) were administered intraperitoneally (i.p.) at the indicated time points, and survival rates were monitored. To elucidate P2-1’s protective mechanisms, a separate group of BALB/c mice (n = 4) underwent CLP and received P2-1 (1.0 mg/kg) at 2 h and 20 h post-CLP. At 24 h post-CLP, the animals were euthanized, blood was collected, and serum cytokines and chemokines were measured via murine cytokine antibody arrays as previously described. More details are presented in Additional file 1: Methods.
For these preclinical studies, animals were random ly assigned to experimental groups and treated with P2, P2-1, or a pCTS-L-neutralizing mAb2 according to the indicated dosing regimens. Outcomes, including septic survival rates, arthritis severity, pain sensitivity, and joint tissue histology scores, were collected under blinded experiment al conditions. The study d esign and sample si zes fo r each exp eriment are d etailed in the figure legends. No data, including outlier values, were excluded. For skewed data, outliers were defined via the interquartile range (IQR) method as any value below Q 1 –(1.5 × IQR) or above Q 3 + (1.5 × IQR). For normally distributed data, outliers were defined via the Z-score method as any value with an absolute Z-score greater than 2 or 3. The primary data are reported in Additional file 4. All the reagent sources are listed in Additional file 1: Table S1 .
Cecal ligation and puncture (CLP) sepsis model […]
screening. c Expression and purification of recombinant full-length human TN (residues 1 – 181) and its N-terminal deletion mutant ( ΔTN, residues 45 – 181). […] Recombinant Δ TN was given intraperitoneally at 24 h and 48 h post-C L P, and animal survival rates were monitored. *P < 0.0 5. […]

Water solubility = type: physicochemical; conditions: qualitative, text in Fig. 1d
human PBMCs = test: RNA-seq of HMGB1-stimulated PBMCs; type: cell-based
Method: Total RNA was isolated from human PBMCs (n = 6 biological replicates) stimulated with HMGB1 in the absence or presence of P2-1 (5.0 or 10.0 µg/ml) via the RNeasy Mini Kit (Qiagen, Germantown, MD, USA) according to the manufacturer’s instructions. cDNA libraries were prepared using the TruSeq RNA Library Prep Kit v2 (Illumina, San Diego, CA, USA) and sequenced on an Illumina NovaSeq 6000 platform to generate 100 bp paired-end reads. Gene counts were quantified via StringTie and DESeq2 for differential gene expression analysis. Volcano plots and heatmaps were generated via ggplot2 and pheatmap packages in R, respectively. Genes with an adjusted P-value < 0.05 and a |log2 fold change|> 1 were considered differentially expressed. […]
custom-synthesized (Gen Script, Piscataway, NJ, USA). P2 -1 was engineered to: i) increase solubility by removing a w ater-insoluble phenylalanine (F) at the C-terminal residue 70 and introducing a water-soluble threonine (T) at N-t erminal residue 54; and ii) reduce oxidative susceptibility by substituting methionine (M) with norleucine (Nle) and cysteine (C) with serine (S), respectively. The pCTS -L-neutralizing mAbs (mAb2) and TN-neutrali zing mAbs (mAb8 and m Ab9) were generated in BALB/c and C57BL/6 m ice as previously described .
RNA sequencing (RNA- Seq) and bioinformatics analysis
Total RNA was isolated from human PBMCs (n= 6 biological replicates) stimulated with HMGB1 in the absence o r pres ence o f P2-1 (5.0 or 10.0 µg/ml) via the RNeasy Mini Kit (Qiagen, Germantown, MD, USA) according to the manufacturer ’s instructions. RNA quantity and quality were assessed via a NanoDrop spectrophotometer, which requires A260/280 and A260/230 ratios to both be > 1.8. Samples meeting these criteria were then sent to two sequencing facilities, where RNA integrity was further confirmed via an Agilent Bioanalyzer. Only samples with an RNA integrity number of 8 or above were accepted for RNA sequencing. cDNA libraries were prepared using the TruSeq RNA Library Prep Kit v2 (Illumina, San Diego, CA, USA) and sequenced on an Illumina NovaSeq 6000 platform to generat e 100 bp paired-end reads. Our data filtering criteria adhered to industry best practices to ensure data quality.
First, raw sequencing reads underwent quality assessment with FastQC, followed by adapter and low-quality nucleotide trimming using Trimmomatic v.0.36. Subsequently, the high- quality reads wer e aligned to the Homo sapiens GRCh38 reference genome using the STAR aligner v.2.5.2b. Following alignment, PCR duplicates were identified and removed with Picard tools to mitigate amplification bias. Before differential expression an alysis, the gene count matrix was filtered to retain only genes with a count-per-million (CPM) > 1 in at least three samples (n = 3, representing our smallest experimental group). This rigorous procedure ensured that analysis was perfo rmed on a robust set of reliably expressed gen es. Finally, gene counts were quantified via StringTie and DESeq2 for differential gene expression analysis. Volcano

[2] = target: T1, Recombinant human high mobility group box 1 (HMGB1) (human, UniProt P09429 1-215); test: SPR; Nicoya OpenSPR; recombinant human HMGB1 immobilized on a carboxyl sensor chip, P2-1 flowed over at various concentrations in HBS-P buffer; 1:1 interaction model; three independent experiments; conditions: both partners purified
T1 construct: high mobility group box 1 (HMGB1); the SPR methods say recombinant human HMGB1; the SPR paragraph says human; The protein on the chip may be that rat construct
T1 sequence (looked up): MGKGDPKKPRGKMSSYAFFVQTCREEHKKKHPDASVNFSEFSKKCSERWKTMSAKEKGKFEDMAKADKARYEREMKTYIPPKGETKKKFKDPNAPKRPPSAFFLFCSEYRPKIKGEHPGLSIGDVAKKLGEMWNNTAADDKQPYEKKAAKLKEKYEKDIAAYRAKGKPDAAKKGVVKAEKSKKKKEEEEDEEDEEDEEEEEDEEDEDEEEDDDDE

[3] = tested on: synthetic TN peptides (P1 – P10); test: Epitope mapping of mAb8 and mAb9 by dot blotting against TN peptides P1 – P10; type: binding, human; conditions: 10 synthesized TN peptides, mAb 1.0 µg/ml, chemiluminescence
Method: remove unbound protein and then fixed with 4% paraformaldehyde for 20 min at room temperature.
Coverslips were mounted onto slides via Vectashield Mounting Medium for fluorescen ce with DAPI (Cat.
#H-1200, Vector Laborat ories, Inc., Newark, CA, USA) for nuclear counterstaining. Endocytic uptake of Alexa Fluor 555- labeled HMGB1 (red) was visualized via the Olympus IX51 inverted fluorescence & phase contrast tissue culture microscope. Cellular HMGB1 uptake was quantified by measuring the mean fluorescen ce intensity of the Alex a- 555- labeled HMGB1 protein within multiple representative cells via ImageJ an alysis software.
Antibody sequencing and antigen contact structure (ACS) prediction
Total RNA was extracted from mAb8 and mAb9 hybridoma cells via TRIzol (Invitrogen, Austin, TX, USA), and cDNA was synthesized via reverse transcriptase. […]
Corresponding to the C-terminal portion of the TN protein (Additional file 1: Fig. S4a) , a library of 10 synthetic peptides (P1 – P10, Additional file 1: Fig. S4b ) was spotted (0.1 μ g in 2.5 μ l) onto nitrocellulose membranes (Cat No. 88013, Thermo Scientific, Waltham, MA, USA ). […] After washing, the membranes were incubated with HRP-conjugated goat anti-mouse IgG (Jackson ImmunoResearch, West Grove, PA, USA), and signals were detected via chemiluminescence as previously described [ 1].

[4] = tested on: CLP-induced sepsis in BALB/c mice; conditions: text in Fig. 1b; mAb8 22% to 77%, mAb9 80% to 50%; ref [21]; cited from earlier work

## KVHMKCFLAFQTKTF [P2]
[1]
  septic survival, in words: significantly increased survival rates in both male and female mice
Water solubility
  Water solubility: Poor water solubility

B1: HMGB1: recombinant HMGB1 protein used as stimulus (protein)
chain: T1 sequence (looked up)
Human PBMCs; CXCL5 (ENA-78), P-adjust 3.97E-166
  Log2 Fold change: 9.951
Human PBMCs; CXCL8 (IL-8), P-adjust 1.17E-133
  Log2 Fold change: 5.985
Human PBMCs; HMGB1-only group, human PBMCs
  Ctsl mRNA upregulation: 3.4 ± 0.3 -fold
Human PBMCs; IL1B (IL-1β), P-adjust 1.29E-157
  Log2 Fold change: 8.223
Human PBMCs; MT1G (Metallothionein-1G), P-adjust 9.98E-141
  Log2 Fold change: 9.377

## TKVH[Nle]KSFLAFQTKT [P2-1 peptide, water-soluble derivative of the tetranectin P2 epitope peptide]
[2]
  Kd: 16.9 nM

B2: mAb8: protective anti-tetranectin monoclonal antibody (antibody, V domains shown)
VH: DVNLVESGGGLVKLGGSLKLSCADSGFTFSSYYMSWVRQTPEKRLELVAAINSNGGRTYYPDTVKGRFTISRDNAKNTLYLQMSSLKSEDTALYYCARQGKNGLDYWGQGTSVTVSS
VL: DIQMTQTTSSLSASLGDRVTISCRASQDISNHLNWYQQKPDGTIKLLIYYTSRLHSGVPSRFSGSGSGTDFSLSISNLEQEDIATYFCQQGKTLPPTFGGGTKLEIK
[3]
  epitope peptide recognised (dot blot): targeted P5
[4]
  survival in sepsis: 77%
